Assay results reported in patent US10941200B2, “TREM2 cleavage modulators and uses thereof” (Deutsches Zentrum Für Neurodegenerative Erkrankungen EV, priority 2016, dated 2021).
“Also recorded” adds a separate entry of the source.

Assays:
Format in all cases: cell-based
human TREM2 [1] = molecular target: T1, human TREM2 (Homo sapiens, UniProt Q9NZC2); test: Anti-HA immunoblotting of soluble TREM2 (sTREM2) from conditioned media of HEK cells stably overexpressing wt TREM2; settings: antibody 50 μg/mL, 24 hrs; FIG. 7A top blot
T1 construct: HEK293 Flp-In cells either expressing human full-length TREM2 or empty vector; expressed in transfected cells
T1 sequence (Q9NZC2 19-230): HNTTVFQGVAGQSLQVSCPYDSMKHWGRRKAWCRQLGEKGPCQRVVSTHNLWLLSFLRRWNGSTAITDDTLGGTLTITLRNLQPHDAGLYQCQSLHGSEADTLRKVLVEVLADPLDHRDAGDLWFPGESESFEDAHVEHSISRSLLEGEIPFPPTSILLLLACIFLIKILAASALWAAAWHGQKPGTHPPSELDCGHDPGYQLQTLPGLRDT
Procedure: (§1) HEK293 Flp-In cells stably overexpressing TREM2 or TREM2-DAP12 cDNA constructs were seeded at a density of 1.5×10^5/cm^2 and medium changed 48 h post seeding. Conditioned medium was collected after 18-20 h, immediately cooled down on ice, centrifuged at 13,000 rpm for 20 min at 4° C. and supernatants frozen at −20° C. until analysis. Supernatants were directly subjected to standard 15% SDS-PAGE. To prepare membrane fractions, cells were washed twice with ice-cold PBS, resuspended in ice-cold hypotonic buffer (0.01 M Tris, pH 7; 1 mM EDTA; 1 mM EGTA), freshly supplemented with protease inhibitor (Sigma) and incubated on ice for 30 min. After snap freezing in liquid
(§2) using enhanced chemiluminescence technique (Pierce). Quantification of immunoblots was performed on a LAS-4000 image reader and analyzed using the Multi-Gauge V3.0 software (both Fujifilm Life Science).
1*10^6-1.5*10^6 cells were seeded in the 6-well format. 24 hours later fresh medium was added to the cells. Antibody clones as generated by Dr. Feederle (Helmholtz Center Munich, Core Facility Monoclonal Antibody Development) were added simultaneously, i.e. for overnight treatment (about 24 hrs), at a final concentration of 50 μg/mL. On the next day, conditioned media and cells were collected and processed as described under “Preparation of conditioned media, cell lysates, and immunoblotting”. […]

human TREM2 [2] = molecular target: T1, human TREM2; test: Immunoblotting of mature TREM2 in membrane fractions of HEK cells stably overexpressing wt TREM2; settings: antibody 50 μg/mL, 24 hrs
Procedure: as §1
nitrogen and thawing, the disrupted cells were centrifuged at 13,000 rpm for 45 min at 4° C.
The resulting pellet was resuspended in STE lysis buffer (150 mM NaCl, 50 mM Tris-HCl,
pH 7.6, 2 mM EDTA, 1% Triton-X 100), incubated for 20 min on ice and clarified by centrifugation at 13,000 rpm for 30 min at 4° C. Protein concentrations were measured using the BCA method, equal amounts of protein were mixed with Laemmli sample buffer, supplemented with beta mercaptoethanol, separated by SDS-PAGE and transferred onto polyvinylidene difluoride membranes (Hybond P; Amersham Biosciences, Aylesbury, UK). Bound antibodies were visualized by corresponding HRP-conjugated secondary antibodies
as §2
(§3) 1*10^6-1.5*10^6 cells were seeded in the 6-well format. 24 hours later fresh medium was added to the cells. Antibody clones as generated by Dr. Feederle (Helmholtz Center Munich, Core Facility Monoclonal Antibody Development) were added simultaneously, i.e. for overnight treatment (about 24 hrs), at a final concentration of 50 μg/mL. On the next day, conditioned media and cells were collected and processed as described under “Preparation of conditioned media, cell lysates, and immunoblotting”.
(§4) ADAM10 inhibitor G1254023X (5 μM final concentration) and a control monoclonal antibody, which is specific for the C terminus of human TREM2, were used as positive and negative controls, respectively.

human TREM2 [3] = molecular target: T1, human TREM2; test: sTREM2 ELISA of conditioned media from HEK293 Flp-In cells stably overexpressing wt TREM2 (ectodomain shedding)
Procedure: as §3, §4
For quantitation of levels of sTREM2 in cell culture supernatants, an ELISA for human sTREM2 was established using the Meso Scale Discovery SECTOR Imager 2400. Streptavidin-coated 96-well plates were blocked overnight at 4° C. in 0.5% bovine serum albumin (BSA) and 0.05% Tween 20 in PBS (pH 7.4) (blocking buffer). For detection of human sTREM2, plates were shaken for 1 hour at room temperature with biotinylated polyclonal goat anti-human TREM2 capture antibody (0.25 mg/ml; R&D Systems) diluted in blocking buffer. Plates were washed subsequently four times with 0.05% Tween 20 in PBS (washing buffer) and incubated for 2 hours at room temperature with samples diluted 1:4 in 0.25% BSA and 0.05% Tween 20 in PBS (pH 7.4) (assay buffer) supplemented with protease inhibitors (Sigma). Recombinant human TREM2 protein (Holzel Diagnostika) was diluted in assay buffer in a two-fold serial dilution and used for the standard curve (concentration range, 4000 to […]). Plates were washed three times for 5 min with washing buffer before incubation for 1 hour at room temperature with mouse monoclonal anti-TREM2 antibody (1 mg/ml; Santa Cruz Biotechnology; B-3) diluted in blocking buffer. After three additional washing steps, plates were incubated with a SULFO-TAG-labeled anti-mouse secondary antibody (1:1000; Meso Scale Discovery) and incubated for 1 hour in the dark. Last, plates were washed three times with washing buffer followed by two washing steps in PBS and developed by adding Meso Scale Discovery Read buffer. The light emission at 620 nm after electrochemical stimulation was measured using the Meso Scale Discovery SECTOR Imager 2400 reader. To quantify the levels of sTREM2 secreted from HEK293 Flp-In cells, conditioned media from biological replicates were analyzed in duplicates. The sTREM2 standard curves were generated using the MasterPlex ReaderFit software (MiraiBio Group, Hitachi Solutions America) through a five-parameter logistic fit. Levels of sTREM2 were subsequently normalized to levels of immature TREM2 as quantified from Western Blots.

B1: clone 14D8: rat monoclonal antibody against TREM2 cleavage site peptide; heavy chain variable SEQ ID NO: 24, light chain variable SEQ ID NO: 34 (antibody, V domains shown)
VH: EVKLLESGGGLVQPGGSMRLSCAASGFTFTDFYMNWIRQPAGKAPEWLGLIRNKANGYTTVYNPSVKGRFTISRDNTQNMLYLQMNTLRGEDTATYYCARIGINNGGSLDYWGQGVMVTVSS
VL: DILINQSPASLTVSTGEKVTMSCRSSQSLLYSEKNQDYLAWYQQKPGQFPKLLIYGASYRHTGVPDRFTGSGSGTDFTLTISSVQAEDLADYYCEQTYSYPYTFGAGTKLELK
modifications: Clone 14D8 variable region of the heavy chain; Clone 14D8 variable region of the light chain
Question: With B1 as the molecule, how does the “extent of ectodomain cleavage (sTREM2 immunoblot), result in words” value (human TREM2 [1]) read?
Answer: strongly reduce the extent of ectodomain cleavage

Question: What about the “increase in levels of mature TREM2 in the membrane fraction (immunoblot), result in words” value (human TREM2 [2]; FIG. 7A bottom blot) of the same molecule?
Answer: comparable to if not higher than the increase as seen with the ADAM10 inhibitor G1254023X

Question: And the “levels of mature TREM2 in the membrane fraction (quantified immunoblots), result in words” value (human TREM2 [2]; normalized to immature TREM2, FIG. 7C)?
Answer: increases in levels of mature TREM2 comparable to or even higher than the ADAM10 inhibitor G1254023X; also recorded: increases in levels of mature TREM2 in the membrane fraction

Question: And the “sTREM2 levels (ELISA), result in words” value (human TREM2 [3]; antibody 50 μg/mL, 24 hrs, normalized to immature TREM2, FIG. 7B)?
Answer: decreases in sTREM2 levels comparable to the ADAM10 inhibitor G1254023X; also recorded: decreased levels of sTREM2

Question: And the “activity to inhibit TREM2 cleavage (summary statement)” value (human TREM2 [3]; ranking among the antibody clones of the Examples)?
Answer: very high activity to inhibit TREM2 cleavage
